Data as given in patent US20140341937A1 (US Dept. of Health and Human Services, published 2014).

T1: CCR4 (human, UniProt P51679 1-360)
T1 sequence (looked up): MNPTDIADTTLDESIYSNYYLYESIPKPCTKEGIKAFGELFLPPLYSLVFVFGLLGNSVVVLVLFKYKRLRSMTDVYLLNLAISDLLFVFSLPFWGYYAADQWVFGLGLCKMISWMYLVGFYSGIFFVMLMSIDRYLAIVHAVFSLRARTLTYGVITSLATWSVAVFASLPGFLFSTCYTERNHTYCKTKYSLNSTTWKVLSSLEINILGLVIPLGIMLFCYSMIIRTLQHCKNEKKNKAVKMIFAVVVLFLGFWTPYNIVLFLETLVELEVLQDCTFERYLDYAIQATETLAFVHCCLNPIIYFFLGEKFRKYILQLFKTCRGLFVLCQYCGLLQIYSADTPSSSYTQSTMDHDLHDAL

B1: MC148-EDN (ligand)
chain: MALARRKCCLNPTNRPIPNPLLQDLSRVDYQAIGHDCGREAFRVTLQDGRQGCVSVGNKSLLDWLRGHKDLCPQIWSGCESLEFNDAQAPKSLEGGGGSKPPQFTWAQWFETQHINMTSQQCTNAMQVINNYQRRCKNQNTFLLTTFANVVNVCGNPNMTCPSNKTRKNCHHSGSQVPLIHCNLTTPSPQNISNCRYAQTPANMFYIVACDNRDQRRDPPQYPVVPVHLDRIIGSAEEQKLISEEDLAHHHHHH
notes: also called MC148-chemotoxin
B2: TARC-PE38 (ligand)
chain: MARGTNVGRECCLEYFKGAIPLRKLKTWYQTSEDCSRDAIVFVTVQGRAICSDPNNKRVKNAVKYLQSLERSDGGGSGGGGSLEASGGPEGGSLAALTAHQACHLPLETFTRHRQPRGWEQLEQCGYPVQRLVALYLAARLSWNQVDQVIRNALASPGSGGDLGEAIREQPEQARLALTLAAAESERFVRQGTGNDEAGAANGPADSGDALLERNYPTGAEFLGDGGDVSFSTRGTQNWTVERLLQAHRQLEERGYVFVGYHGTFLEAAQSIVFGGVRARSQDLDAIWRGFYIAGDPALAYGYAQDQEPDARGRIRNGALLRVYVPRSSLPGFYRTSLTLAAPEAAGEVERLIGHPLPLRLDAITGPEEEGGRLETILGWPLAERTVVIPSAIPTDPRNVGGDLDPSSIPDKEQAISALPDYASQPGKPPREDLKRSAEEQKLISEEDLAHHHHHH

Columns and labels:
[1] = biological target: T2, CCR8 (human, UniProt P51685 1-355); assay: flow cytometry on HEK293/CCR8 cells, 30 min at 4° C., anti-EDN antibody detection
T2 construct: whole, on cells; also called human CCR8; HEK/CCR8

[2] = biological target: T1, CCR4; assay: cell-based or functional assay

T2 sequence (P51685 whole entry): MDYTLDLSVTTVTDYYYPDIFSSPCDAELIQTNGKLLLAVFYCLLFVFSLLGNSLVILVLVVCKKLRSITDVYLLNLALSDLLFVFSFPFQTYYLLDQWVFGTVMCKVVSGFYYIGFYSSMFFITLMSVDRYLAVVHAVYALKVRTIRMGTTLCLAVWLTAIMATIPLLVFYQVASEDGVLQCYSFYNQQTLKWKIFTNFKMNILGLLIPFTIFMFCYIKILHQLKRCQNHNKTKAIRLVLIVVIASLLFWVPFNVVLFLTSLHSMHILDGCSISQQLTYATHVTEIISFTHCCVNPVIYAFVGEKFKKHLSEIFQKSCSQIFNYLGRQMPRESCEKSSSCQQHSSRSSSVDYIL

Row | Binder | binding result [1] | killing of human T lymphoblastoid CCRF-CEM cells in vitro (IC50) [2] [nM]
1 | B1 | binds | 
2 | B2 |  | 3 to 8
